Test results as given in US20230002480A1.

How the values were obtained:
Assay in all cases: cell-based or functional assay
[1] = biological target: HIV-1 Env of pseudovirus 1006_11_C3_1601 (HIV-1)
[2] = biological target: HIV-1 Env of pseudovirus 1394C9G1(Rev-) (HIV-1)
[3] = biological target: HIV-1 Env of pseudovirus 263-8 (HIV-1)
[4] = biological target: HIV-1 Env of pseudovirus 6244_13_B5_4576 (HIV-1)
[5] = biological target: HIV-1 Env of pseudovirus 6540.v4.c1 (HIV-1)
[6] = biological target: HIV-1 Env of pseudovirus 6545.v4.c1 (HIV-1)
[7] = biological target: HIV-1 Env of pseudovirus 6811.v7.c18 (HIV-1)
[8] = biological target: HIV-1 Env of pseudovirus 89-F1_2_25 (HIV-1)
[9] = biological target: HIV-1 Env of pseudovirus 9004SS_A3_4 (HIV-1)
[10] = biological target: HIV-1 Env of pseudovirus 928-28 (HIV-1)
[11] = biological target: HIV-1 Env of pseudovirus A07412M1.vrc12 (HIV-1)
[12] = biological target: HIV-1 Env of pseudovirus BF1266.431a (HIV-1)
[13] = biological target: HIV-1 Env of pseudovirus BJOX010000.06.2 (HIV-1)
[14] = biological target: HIV-1 Env of pseudovirus BJOX015000.11.5 (HIV-1)
[15] = biological target: HIV-1 Env of pseudovirus C4118.c09 (HIV-1)
[16] = biological target: HIV-1 Env of pseudovirus CNE20 (HIV-1)
[17] = biological target: HIV-1 Env of pseudovirus CNE30 (HIV-1)
[18] = biological target: HIV-1 Env of pseudovirus CNE5 (HIV-1)
[19] = biological target: HIV-1 Env of pseudovirus Ce2060_G9 (HIV-1)
[20] = biological target: HIV-1 Env of pseudovirus Du422.1 (HIV-1)
[21] = biological target: HIV-1 Env of pseudovirus MS208.A1 (HIV-1)
[22] = biological target: HIV-1 Env of pseudovirus P0402_c2_11 (HIV-1)
[23] = biological target: HIV-1 Env of pseudovirus PVO.4 (HIV-1)
[24] = biological target: HIV-1 Env of pseudovirus Q769.d22 (HIV-1)
[25] = biological target: HIV-1 Env of pseudovirus QH0692.42 (HIV-1)
[26] = biological target: HIV-1 Env of pseudovirus R1166.c01 (HIV-1)
[27] = biological target: HIV-1 Env of pseudovirus SC05_8C11_2344 (HIV-1)
[28] = biological target: HIV-1 Env of pseudovirus T257-31 (HIV-1)
[29] = biological target: HIV-1 Env of pseudovirus T278-50 (HIV-1)
[30] = biological target: HIV-1 Env of pseudovirus TRJO4551.58 (HIV-1)
[31] = biological target: HIV-1 Env of pseudovirus WITO4160.33 (HIV-1)
[32] = biological target: HIV-1 Env of pseudovirus X1632_S2_B10 (HIV-1)
[33] = biological target: HIV-1 Env of pseudovirus X2131_C1_B5 (HIV-1)
[34] = biological target: HIV-1 Env of pseudovirus ZM135M.PL10a (HIV-1)
[35] = biological target: HIV-1 Env of pseudovirus ZM197M.PB7 (HIV-1)
[36] = biological target: HIV-1 Env of pseudovirus ZM214M.PL15 (HIV-1)
[37] = biological target: HIV-1 Env of pseudovirus ZM249M.PL1 (HIV-1)

## PGT145 (antibody)
[1]
  IC50: > 50 µg/mL
  IC80: > 50 µg/mL
[2]
  IC50: 0.001 µg/mL
  IC80: 0.005 µg/mL
[3]
  IC50: 32.1 µg/mL
  IC80: > 50 µg/mL
[4]
  IC50: 7.27 µg/mL
  IC80: 44.5 µg/mL
[5]
  IC50, titer in TZM.bl cells: 0.08 µg/mL
  IC80, titer in TZM.bl cells: 5.09 µg/mL
[6]
  IC50, titer in TZM.bl cells: 0.114 µg/mL
  IC80, titer in TZM.bl cells: 3.1 µg/mL
[7]
  IC50, titer in TZM.bl cells: > 50 µg/mL
  IC80, titer in TZM.bl cells: > 50 µg/mL
[8]
  IC50, titer in TZM.bl cells: 0.8 µg/mL
  IC80, titer in TZM.bl cells: 20 µg/mL
[9]
  IC50: 0.018 µg/mL
  IC80: 0.419 µg/mL
[10]
  IC50: > 50 µg/mL
  IC80: > 50 µg/mL
[11]
  IC50, titer in TZM.bl cells: 0.002 µg/mL
  IC80, titer in TZM.bl cells: 0.023 µg/mL
[12]
  IC50: 1.34 µg/mL
  IC80: 18.5 µg/mL
[13]
  IC50, titer in TZM.bl cells: > 50 µg/mL
  IC80, titer in TZM.bl cells: > 50 µg/mL
[14]
  IC50, titer in TZM.bl cells: > 50 µg/mL
  IC80, titer in TZM.bl cells: > 50 µg/mL
[15]
  IC50, titer in TZM.bl cells: < 0.001 µg/mL
  IC80, titer in TZM.bl cells: 0.004 µg/mL
[16]
  IC50: 0.318 µg/mL
  IC80: 6.97 µg/mL
[17]
  IC50: > 50 µg/mL
  IC80: > 50 µg/mL
[18]
  IC50, titer in TZM.bl cells: 0.001 µg/mL
  IC80, titer in TZM.bl cells: 0.013 µg/mL
[19]
  IC50: 0.016 µg/mL
  IC80: 0.205 µg/mL
[20]
  IC50: 22.6 µg/mL
  IC80: > 50 µg/mL
[21]
  IC50: 0.334 µg/mL
  IC80: 18 µg/mL
[22]
  IC50, titer in TZM.bl cells: 0.009 µg/mL
  IC80, titer in TZM.bl cells: 0.038 µg/mL
[23]
  IC50: 0.192 µg/mL
  IC80: 0.87 µg/mL
[24]
  IC50: 0.26 µg/mL
  IC80: 25.5 µg/mL
[25]
  IC50: > 50 µg/mL
  IC80: > 50 µg/mL
[26]
  IC50, titer in TZM.bl cells: 2.27 µg/mL
  IC80, titer in TZM.bl cells: 17.9 µg/mL
[27]
  IC50: 0.093 µg/mL
  IC80: 0.248 µg/mL
[28]
  IC50: 5.18 µg/mL
  IC80: > 50 µg/mL
[29]
  IC50, titer in TZM.bl cells: 10.3 µg/mL
  IC80, titer in TZM.bl cells: > 50 µg/mL
[30]
  IC50: > 50 µg/mL
  IC80: > 50 µg/mL
[31]
  IC50: < 0.001 µg/mL
  IC80: 0.001 µg/mL
[32]
  IC50, titer in TZM.bl cells: 0.012 µg/mL
  IC80, titer in TZM.bl cells: 2.03 µg/mL
[33]
  IC50, titer in TZM.bl cells: 0.018 µg/mL
  IC80, titer in TZM.bl cells: 0.065 µg/mL
[34]
  IC50: > 50 µg/mL
  IC80: > 50 µg/mL
[35]
  IC50: 0.628 µg/mL
  IC80: 5.24 µg/mL
[36]
  IC50: > 50 µg/mL
  IC80: > 50 µg/mL
[37]
  IC50: 1.44 µg/mL
  IC80: > 50 µg/mL
